These results are taken from the supplement of paper PMC12042874.

± gives the uncertainty stated by the source.

The data set can be described thus: amyloid nucleation score (Sup35N fusion, yeast selection) (log enrichment); library NNK1; higher = more nucleation; inactive = no reads after selection. The essentials:
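Nucleation score: DiMSum log enrichment of output over input reads, centred on the mode score of non-aggregating sequences. Only sequences with at least 100 input reads were kept. Reads came from Illumina sequencing of plasmid inserts before and after 7 days of growth at 30°C without adenine and uracil, in psi-negative yeast expressing Sup35N fused to peptides of 20 random codons after 24 hours of induction with 100 μM copper sulfate.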
As to VMNENI, the amyloid nucleation score result is “inactive”.

Take VMTWHL: the amyloid nucleation score is -0.73 ± 0.45.

With VMVFGSMPVDDLLHFWLECY, the amyloid nucleation score is -0.102 ± 0.42.

VNASELEYKFTLLVQWMIRR displayed an amyloid nucleation score of 1.31 ± 0.32.

VNEIRT displayed an amyloid nucleation score of -0.153 ± 1.2.

With VNGTG, the amyloid nucleation score is -0.252 ± 0.97.

In turn, VNLRCRSTLEGSN had an amyloid nucleation score of -0.077 ± 0.31.

VNLYGVLMGSLLGGQRQHDV came in with an amyloid nucleation score of -1.1 ± 1.9.

As for VNMNELRNNRLSSVVFLVVG, the amyloid nucleation score was determined as 2.09 ± 0.21.

Take VNQDAGDMKSVRKRAMTRLC: the amyloid nucleation score worked out at 1.06 ± 0.56.

Consider VNSTMVPRVLME, for which the amyloid nucleation score turned out to be 0.935 ± 0.69.

Substance VNSVWNGNR returned an amyloid nucleation score of -0.218 ± 0.71.

VPCGKLIISGGVQNCIYYWE had an amyloid nucleation score of 7.306 ± 0.056.

VPCNYKGSLSGRRYLSAKQS returned an amyloid nucleation score of 0.011 ± 0.34.

For the substance VPLGSDSNHNANVTCYFASA, the amyloid nucleation score was -0.078 ± 0.37.

In turn, VPNEYGNSEVRLLDLLGDLE registered an amyloid nucleation score of -0.435 ± 0.36.

For VPRYGTLEGANESDLFGW, the amyloid nucleation score worked out at 0.282 ± 0.78.

VPSLSPFGRKMFHIRSL: the amyloid nucleation score entry is “inactive”.

On to VPTVCYFSNQVR, for which the amyloid nucleation score was -0.434 ± 0.33.

With VPVLLNARIRI, the amyloid nucleation score is -1.1 ± 0.81.

VQCFLAQRSVDSGATELIIV gave an amyloid nucleation score of 0.114 ± 0.59.

Turning to VQCVHLSNME, the amyloid nucleation score turned out to be 0.105 ± 0.72.

In turn, VQDVYENFSSPQNIGVMRAS gave an amyloid nucleation score of 0.956 ± 0.81.

Regarding VQRELFLVLHHTSVGRGSAP, the amyloid nucleation score came out at 1.08 ± 0.24.

Take VQYNLTCNYY: the amyloid nucleation score was 4.01 ± 0.14.

Substance VRADFALTWLLGVCRVWCCR came in with an amyloid nucleation score of 0.247 ± 0.36.

Substance VRAPRSVWRSFAAA had an amyloid nucleation score of -0.107 ± 0.59.

VRECRSMERTTHQVCTWGGA: the amyloid nucleation score was found to be 0.078 ± 1.4.

Take VRGVSVGSYKSVAELGGTQT: the amyloid nucleation score was -0.449 ± 1.3.

Turning to VRHTQHRSSL, the amyloid nucleation score is -1.62 ± 1.3.

VRISWRGGGPLSCDVCACMT returned an amyloid nucleation score of 0.479 ± 1.2.

In the case of VRLFLCFARSMDVRYFILVG, the amyloid nucleation score came to 0.459 ± 0.57.

Consider VRNWWDDNYSFTHAYLSTDG, for which the amyloid nucleation score came out at 1.01 ± 0.66.

Turning to VRRDQDRPFSTMRQGLRFGH, the amyloid nucleation score turned out to be 0.248 ± 0.31.

In turn, VRTLRTLAGLRRLLINKS showed an amyloid nucleation score of -0.137 ± 0.54.

On to VRVMILHLSDILYYLWYGTI, for which the amyloid nucleation score was found to be 5.22 ± 0.078.

VRYMSLWGIVSRVCGIRMER displayed an amyloid nucleation score of 1.23 ± 0.56.

VSCSDSMAFPSKSCF displayed an amyloid nucleation score of 0.712 ± 0.34.

For the substance VSEFGFIVF, the amyloid nucleation score was -0.315 ± 0.76.

VSKRFRFLRTLFIEECDLRH: the amyloid nucleation score turned out to be 0.576 ± 0.32.

Turning to VSLYM, the amyloid nucleation score amounted to 0.924 ± 0.97.

With VSQVVCGMSYFGDCAIRQES, the amyloid nucleation score is 0.153 ± 0.5.

VSRMP showed an amyloid nucleation score of 3.21 ± 0.12.

As for VSSLWFKDYQYVFDDCYAKP, the amyloid nucleation score is -0.258 ± 0.56.

VSSTYNSFRFVSLGKFNHHC showed an amyloid nucleation score of 2.71 ± 0.17.

In the case of VSTCAAR, the amyloid nucleation score was -0.383 ± 0.95.

For the substance VSTNSDSLLGNCRKNPVHPS, the amyloid nucleation score stood at 1.03 ± 0.79.

As to VSTSLGHLVDWGKSM, the amyloid nucleation score entry is “inactive”.

As for VSVFLHAVITDPS, the amyloid nucleation score was 1.9 ± 0.46.

VSVFNAQFIDRRGCR came in with an amyloid nucleation score of 5.16 ± 0.063.

Regarding VSVQMAGIF, the amyloid nucleation score is -0.863 ± 0.54.

VSVSRGRTFSFSIGSYRIGR: the amyloid nucleation score came out at 3.11 ± 0.091.

As for VSVTLLFFTVPIQGRVMQFS, the amyloid nucleation score came out at 0.148 ± 0.29.

For VSYRTSMSVVLRCGFYCSAY, the amyloid nucleation score amounted to 3.22 ± 0.14.

For the substance VSYSGQSLICYWVLEASFVV, the amyloid nucleation score was -0.05 ± 0.31.

VTCWPDICRSFYMIVLHCFR displayed an amyloid nucleation score of 0.141 ± 0.7.

VTKFLWYIPGPKIGRFYLSN had an amyloid nucleation score of 0.43 ± 0.38.

On to VTLAQKLLDF, for which the amyloid nucleation score is -0.421 ± 1.1.

As for VTMVRYCALIQSYGGDGELV, the amyloid nucleation score is 0.26 ± 0.45.

In turn, VTRLLTLPWHCRRIYLVNLY yielded an amyloid nucleation score of -0.09 ± 0.97.

As to VTVFEILWGMTT, the amyloid nucleation score entry was “inactive”.

Substance VVARYYIQLFDRRDRN yielded an amyloid nucleation score of 6.678 ± 0.065.

For VVDFGSGCI, the amyloid nucleation score was 0.423 ± 0.46.

With VVFRGIVCCCQ, the amyloid nucleation score stood at 0.3 ± 0.58.

In turn, VVGSVLRGSYTCLG gave an amyloid nucleation score of -0.972 ± 0.82.

VVIESYC showed an amyloid nucleation score of 0.593 ± 0.36.

The substance VVISIYGMYRSFTPQLWFKA yielded an amyloid nucleation score of -0.603 ± 0.68.

As for VVLEHVDYHS, the amyloid nucleation score was found to be 0.822 ± 0.52.

VVRTH: the amyloid nucleation score entry is “inactive”.

As for VVSRIDPCTWHCAMIKGHRY, the amyloid nucleation score was -0.332 ± 1.1.

In the case of VVSSAEQVHLGVVNGRRFLL, the amyloid nucleation score is -0.003 ± 0.74.

For the substance VVTDF, the amyloid nucleation score result was “inactive”.

Substance VVTEKGLPWARQW showed an amyloid nucleation score of -0.205 ± 0.33.

On to VVVCSNLMYLNCNWAATNNL, for which the amyloid nucleation score came out at 7.163 ± 0.047.

VVVGDSPNGNEEDDWSSC registered an amyloid nucleation score of -2.03 ± 2.7.

On to VVWEQSIDVILGYMGLGPD, for which the amyloid nucleation score is 0.381 ± 0.49.

With VVWWGEQHGLYSYFGHGIGI, the amyloid nucleation score is 0.968 ± 0.63.

VWACSPGDVAFMP showed an amyloid nucleation score of 0.762 ± 0.97.

Regarding VWGYVMRS, the amyloid nucleation score amounted to 0.299 ± 0.95.

Substance VWLCLRIVVSGNNRACFICV gave an amyloid nucleation score of 1.46 ± 0.19.

Take VWLEYECKVLVLHYCFCRVR: the amyloid nucleation score was 0.72 ± 0.61.

Substance VWTGCVHCRRWDSGSLLNSW registered an amyloid nucleation score of -0.036 ± 0.91.

VWYTRGRRHRGTTYMSNRLW gave an amyloid nucleation score of -0.28 ± 0.31.

VYFRCTWAISMFFYMSNAGW showed an amyloid nucleation score of 1.35 ± 0.21.

The substance VYGVPWYGLSYLFCTSVDID returned an amyloid nucleation score of 6.252 ± 0.059.

Turning to VYPFD, the amyloid nucleation score is -1.32 ± 1.4.

For VYRCCLKAVCFIDVVTGLWG, the amyloid nucleation score was -0.173 ± 0.71.

In the case of VYSFDMM, the amyloid nucleation score worked out at 0.256 ± 0.52.

VYSMVFLMPCNRHDSFGRYS displayed an amyloid nucleation score of 6.578 ± 0.056.

In the case of VYSMWTERQFLGMILGGEAG, the amyloid nucleation score was -0.091 ± 0.85.

In the case of VYSRPL, the amyloid nucleation score turned out to be 0.098 ± 0.57.

Take VYSSMIVLKDALIPSSKTDA: the amyloid nucleation score was 0.999 ± 0.51.

Take VYTSRDGNDLEACGGYSAIV: the amyloid nucleation score was determined as 0.705 ± 0.71.

WAHGLLFSYDSLHWYYICKV showed an amyloid nucleation score of 0.304 ± 0.44.

With WAMDKGWKVNHCNEAPMIHC, the amyloid nucleation score is -0.053 ± 0.37.

WASMIHVEFYSNYFL had an amyloid nucleation score of -0.017 ± 0.72.

As for WATLALSR, the amyloid nucleation score was determined as 0.5 ± 0.4.

On to WCARNISRCPSNISGNLGMK, for which the amyloid nucleation score is -0.461 ± 0.69.

WCSDKSVGRAKDDDSGTRRC returned an amyloid nucleation score of -0.018 ± 0.46.

In the case of WCSLRSDW, the amyloid nucleation score entry is “inactive”.

The substance WDFDYSMCVLYMVTAIRLWR showed an amyloid nucleation score of -0.26 ± 0.54.

As for WDKADVFLDDVSASRSSLKM, the amyloid nucleation score worked out at 3.31 ± 0.088.

On to WFASYCISFN, for which the amyloid nucleation score came out at 2.27 ± 0.21.

The substance WFDELGRDFLV showed an amyloid nucleation score of -0.193 ± 1.6.

Take WFGYNIGPK: the amyloid nucleation score is 2 ± 0.28.

WFYKLSSLFYNPLCL: the amyloid nucleation score was -1.13 ± 0.41.

The substance WFYPWVLVWTLSCCVSRHKG came in with an amyloid nucleation score of 4.35 ± 0.14.

As for WGCDLEAALY, the amyloid nucleation score was 0.016 ± 1.7.

On to WGFRENETMV, for which the amyloid nucleation score is -0.742 ± 0.46.

WGIVVNQYVVRSVRLKLQDR had an amyloid nucleation score of 2.8 ± 0.13.

On to WGLNWSNSNN, for which the amyloid nucleation score entry is “inactive”.

Substance WGMWSGLLFGEFWCS gave an amyloid nucleation score of -0.424 ± 0.71.

With WHLWIVTTVTHMGSNNFLG, the amyloid nucleation score entry was “inactive”.

Substance WHMVKSVSTNIV yielded an amyloid nucleation score of -0.386 ± 0.58.

WICVGYIVTTCSPELGEYRQ: the amyloid nucleation score result was “inactive”.

Take WIILVHGGGKRLSVNIHLLC: the amyloid nucleation score was -0.713 ± 0.32.

For WIWVYQTNKIKEMFMRRVWL, the amyloid nucleation score entry was “inactive”.

WKQMVLGVWCESLELL came in with an amyloid nucleation score of -0.548 ± 0.56.

In the case of WLFLTYNVMGLKVGKFAGHT, the amyloid nucleation score is -0.437 ± 0.42.

Take WLINTPTHWVFVDIVWYWSK: the amyloid nucleation score came to 0.051 ± 0.84.

WLMVLATGAYAMHWVVTSSL yielded an amyloid nucleation score of 2.98 ± 0.069.

Take WLNFWILMSVMFVNMSSLFP: the amyloid nucleation score was -1.01 ± 0.52.

WLSHGIEVVVHKTSSVSYWR yielded an amyloid nucleation score of -0.796 ± 1.1.

In the case of WLSPQG, the amyloid nucleation score was 0.453 ± 0.62.

WLVCNEGSIMDLASGLGLIR registered an amyloid nucleation score of 0.561 ± 0.66.

The substance WLVQAQALQGWKCFLHKISF showed an amyloid nucleation score of -0.186 ± 0.48.

In turn, WLVVHSQLFSSCNCLKNTVP registered an amyloid nucleation score of 0.968 ± 0.35.

Regarding WMALDYGYSTSHGNCYMEIS, the amyloid nucleation score stood at 1.23 ± 0.84.

Substance WMFTGVRLVSK came in with an amyloid nucleation score of 0.3 ± 0.43.

In turn, WNCLCSGLTC returned an amyloid nucleation score of 6.806 ± 0.055.

Regarding WNGTFNVPWSFDFRCSWVGK, the amyloid nucleation score came to 0.719 ± 0.79.

The substance WNPIAIYEGDGMQDAFCADL had an amyloid nucleation score of -0.033 ± 0.38.

WNVDVGSLC: the amyloid nucleation score entry is “inactive”.

Regarding WPASLSSCIS, the amyloid nucleation score is -0.047 ± 0.66.

With WPTIPAVQCRRVVCSRDTWA, the amyloid nucleation score was -0.185 ± 0.31.

For WPWHEHEQKWDKLCMLSWKR, the amyloid nucleation score entry was “inactive”.

WQQWGRSPRTR displayed an amyloid nucleation score of 0.368 ± 0.46.

WQSFGVSGRLPYRQWSD: the amyloid nucleation score result was “inactive”.

On to WRMCSHCVLPHSMFSDSNTV, for which the amyloid nucleation score was -1.03 ± 1.3.

On to WRMRYKC, for which the amyloid nucleation score was -0.338 ± 1.2.

The substance WRVNVEVKYFAEKTVQECWV gave an amyloid nucleation score of 0.817 ± 0.23.

As to WSCKVMRVYRP, the amyloid nucleation score was 0.295 ± 0.4.
